Earlier results as cited in publication PMC7106362.

Biological target: m157 (Murine cytomegalovirus) (UniProt A8E1S5)
Assay: SPR

In the case of Ly49H (from UniProt Q60682), the Kd is given as 1000 nM.
